The results in this text go back to patent US20140072563A1 (Regeneron, published 2014).

Assay [1] deals with hErbB3.mmh (soluble monomeric human ErbB3 extracellular domain with C-terminal myc-myc-hexahistidine tag) (human, UniProt P21860 20-642). The assay is described as follows: SPR (Biacore), 25 C, mAb capture format. The procedure:
(§1) (Tables 2-4). Measurements were conducted on a Biacore 2000 or T100 instrument. […] Kinetic association (kₐ) and dissociation (kd) rate constants were determined by processing and fitting the data to a 1:1 binding model using Scrubber 2.0 curve fitting software.
(In general: SPR reads the build-up and loss of mass on a sensor chip optically.)

In assay [2] the target is T1, hErbB3.mFc (soluble dimeric human ErbB3 extracellular domain fused to mouse Fc) (human).
T1 construct: called dimeric
T1 chain: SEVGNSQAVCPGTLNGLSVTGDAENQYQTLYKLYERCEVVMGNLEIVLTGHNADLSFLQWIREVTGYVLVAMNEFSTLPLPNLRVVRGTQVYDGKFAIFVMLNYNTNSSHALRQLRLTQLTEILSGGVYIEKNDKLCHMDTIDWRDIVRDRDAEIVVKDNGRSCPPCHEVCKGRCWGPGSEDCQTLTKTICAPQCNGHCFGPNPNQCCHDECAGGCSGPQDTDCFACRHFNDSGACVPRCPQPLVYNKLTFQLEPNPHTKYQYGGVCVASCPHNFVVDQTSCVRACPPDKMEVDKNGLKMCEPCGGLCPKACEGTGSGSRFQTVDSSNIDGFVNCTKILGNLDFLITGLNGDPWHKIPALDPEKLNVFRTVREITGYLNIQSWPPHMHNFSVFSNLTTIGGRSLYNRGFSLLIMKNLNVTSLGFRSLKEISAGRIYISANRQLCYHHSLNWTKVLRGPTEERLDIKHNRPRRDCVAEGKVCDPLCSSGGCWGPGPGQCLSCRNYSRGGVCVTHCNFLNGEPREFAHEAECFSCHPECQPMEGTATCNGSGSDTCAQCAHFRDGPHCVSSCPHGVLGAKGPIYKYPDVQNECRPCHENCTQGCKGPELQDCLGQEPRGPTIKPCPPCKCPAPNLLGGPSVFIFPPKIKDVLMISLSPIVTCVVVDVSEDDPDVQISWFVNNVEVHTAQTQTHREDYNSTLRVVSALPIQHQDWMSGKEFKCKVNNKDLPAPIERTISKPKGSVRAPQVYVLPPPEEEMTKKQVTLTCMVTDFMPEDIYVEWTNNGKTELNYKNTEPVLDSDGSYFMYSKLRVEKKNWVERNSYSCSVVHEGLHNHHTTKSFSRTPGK
The assay is described as follows: SPR (Biacore), 25 C, mAb capture format. On the procedure: as §1

B1: H4H2111P (antibody, V domains shown)
VH: QVQLVESGGGVVQPGRSLRLSCAASGFTFNNYGMHWVRQAPGKGLAWVAVMWYSESHKYYADSVKGRFTISRDNSKNTLYLEMNSLRVEDTAIYYCARDLGDPDAFDIWGQGTMVTVSS
VL: DIQLTQSPSFLSASVGDRVTITCWASQGISSYLAWYQQKPGKAPKLLIYGASTLQSGVPSRFSGSGSGTEFTLTISSLQPEDFATYYCQQLNSYPLTFGGGTKVEIKR
notes: Fully human, human IgG4 Fc (H4H prefix)
On to B1, for which, in assay [1], the Kd was found to be 53.1 pM, the T½ came to 1.52 h, the koff stood at 0.000118 s⁻¹ and the kon worked out at 2.21e+06 M⁻¹ s⁻¹. In assay [2], the dissociation constant Kd came out at 2.49 pM, the T½ amounted to 20.4 h, the koff came to 8.69e-06 s⁻¹ and the kon was found to be 3.5e+06 M⁻¹ s⁻¹.

B2: H4H2140P (antibody, V domains shown)
VH: EVQLVESGGGLVQPGGSLRLSCAASGFSVSYYDMHWVRQVTGKGLEWVSAIGPAGDTYYPGSVKGRFTISREDATNSLYLQIHSLGAGDTAVYYCAREGAIAARPDDYYGMDVWGQGTTVTVSS
VL: DIQLTQSPSFLSASVGDRVTITCWASQDISSYLAWYQQKPGKAPKLLIYAASTLQSGVPSRFSGSGSGTEFTLTISSLQPEDFATYYCQQLNSYPLTFGGGTKVEIKR
notes: as for B1
Consider B2, for which, in assay [1], binding was put at a Kd of 19.8 pM, the T½ is 5.43 h, the koff came out at 3.27e-05 s⁻¹ and the kon was 1.66e+06 M⁻¹ s⁻¹. In assay [2], this molecule yielded a Kd of 0.393 pM, a T½ of 180 h, a koff of 9.86e-07 s⁻¹ and a kon of 2.51e+06 M⁻¹ s⁻¹.

B3: H4H2143P (antibody, V domains shown)
VH: EVQLVESGGGLVQPGRSLRLSCAASGFTFGDYAMHWVRQAPGKGLEWVSGINLNSGTIGYADSVKGRFTISRDNAKNSLYLQMNSLRAEDTAFYYCAKDIDGYYHYAMDVWGQGTTVTVSS
VL: DVVMTQSPSFLSASVGDRVTITCWASQGISSYLAWYQQKPGKAPKLLIYDASTLESGVPSRFSGSGSGTEFTLTISNLQPEDFATYYCQQVNSYPLTFGGGTKVEIKR
notes: as for B1
In assay [1], B3 gave a Kd of 53.1 pM, a T½ of 1.82 h, a koff of 9.73e-05 s⁻¹ and a kon of 1.83e+06 M⁻¹ s⁻¹. In assay [2], this molecule came in with a Kd of 1.75 pM, a T½ of 38.4 h, a koff of 4.63e-06 s⁻¹ and a kon of 2.86e+06 M⁻¹ s⁻¹.

B4: H4H2147P (antibody, V domains shown)
VH: QVQLVESGGGLVKPGGSLRLSCAASGFTFSDFNMGWIRQAPGKGLEWVSHISGSGNVIYYADSVKGRFAISRDNGKNSLYLQVNSLRAEDTAVYYCARDIGDSDAFDIWGQGTMVTVSS
VL: DIQLTQSPSFLSASVGDRVTITCWASQDISSYLAWYQQKPGKAPKLLIYGASTLESGVPSRFSGSGSGTEFTLTISSLQPEDVATYYCQQLNTYPLTFGGGTKVEIKR
notes: as for B1
In assay [1], B4 came in with a Kd of 43.8 pM, a T½ of 1.63 h, a koff of 0.000108 s⁻¹ and a kon of 2.47e+06 M⁻¹ s⁻¹. In assay [2], this molecule came in with a Kd of 1.5 pM, a T½ of 38.8 h, a koff of 4.58e-06 s⁻¹ and a kon of 3.33e+06 M⁻¹ s⁻¹.

B5: H4H2146P (antibody, V domains shown)
VH: QVQLVESGGGVVQPGRSLRLSCAASGFTFINYGIHWVRQGPGKGLEWVAVIWYDGSNEWYADSVKGRFTISRDNSKNTVYLEMNKLRAEDTAVYYCAREEEDYGMDVWGQGTTVTVSS
VL: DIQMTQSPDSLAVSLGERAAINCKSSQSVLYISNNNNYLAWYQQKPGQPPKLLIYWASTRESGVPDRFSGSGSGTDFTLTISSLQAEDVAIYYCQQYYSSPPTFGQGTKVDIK
notes: as for B1
In assay [1], B5 returned a Kd of 12.4 pM, a T½ of 5.13 h, a koff of 3.46e-05 s⁻¹ and a kon of 2.79e+06 M⁻¹ s⁻¹. In assay [2], this molecule came in with a Kd of 0.435 pM, a T½ of 89.9 h, a koff of 1.98e-06 s⁻¹ and a kon of 4.54e+06 M⁻¹ s⁻¹.

B6: H4H2148P (antibody, V domains shown)
VH: EVQLVESGGGLVHPGRSLRLSCAASGFTFDDYAMHWVRQSPGKGLEWVSGISWNSVIKHSTDSVRGRFTISRDNAKNSLYLQMNSLKPEDTAFYYCAKDEDDWNYLDYWGQGTLVTVSS
VL: DIQMTQSPSSVSASVGDRVTITCRASQDINSWLAWYQQKPGKAPKLLIYTSSNLQSGVPSRFSGSGSGTDFTLTISSLQPEDFATYYCQQSDSFPFTFGPGTKVDIKR
notes: as for B1
In the case of B6, in assay [1], the Kd is 8.71 pM, the T½ was 5.12 h, the koff was found to be 3.47e-05 s⁻¹ and the kon was 3.98e+06 M⁻¹ s⁻¹. For the same molecule, in assay [2], the Kd came out at 0.295 pM, the T½ was 102 h, the koff came out at 1.74e-06 s⁻¹ and the kon came to 5.91e+06 M⁻¹ s⁻¹.

B7: H4H2108P (antibody, V domains shown)
VH: EVQLLESGGDLVQPGGSLRLSCATSGFSFSSDAMNWVRQAPGKGLEWVSGISGSGGNTYYADSVKGRFTISRDISKSTLSLQMNSLRAEDTAVYYCAKEGTNMVRGVVMEDNGMDVWGQGTTVTVSA
VL: DIQMTQSPSSVSASVGDRVTITCRASQGISDYLAWYQQKPGKAPKLLIYAASSLQSGVPSRFSGRGSGTDFTLTISTLQPEDFATYYCQQANSFPLTFGGGTKVDIKR
notes: as for B1
Turning to B7, in assay [1], the Kd turned out to be 41.8 pM, the T½ is 2.18 h, the koff is 8.13e-05 s⁻¹ and the association rate constant (kon) stood at 1.95e+06 M⁻¹ s⁻¹. Also, in assay [2], the affinity, expressed as Kd, was 1.46 pM; the T½ stood at 41 h; the koff is 4.33e-06 s⁻¹; the kon came out at 2.96e+06 M⁻¹ s⁻¹.

B8: H4H2138P (antibody, V domains shown)
VH: QVQLQESGPGLVKPSQTLSLTCTVSGGSINSGGYYWSWIRQHPGKGLEWIGYISYSGNTNYNPSLKSRVTISVDTSKNQFSLTLTSVTAADTAVYYCARDSDVDTGLVDGFDVWGQGTMVTVSS
VL: DIVMTQSPSSVSASVGDRVTITCRASQGVSSWLAWYQQKPGKAPKLLIYTTSSLQSGVPSRFSGSGSGTDFTLTISSLQPEDFATYYCQQSNSFPFTFGPGTKVEIK
notes: as for B1
As to B8, in assay [1], binding was characterised by a dissociation constant (Kd) of 20.9 pM, the T½ was 3.55 h, the koff is 5.01e-05 s⁻¹ and the kon amounted to 2.39e+06 M⁻¹ s⁻¹. In addition, in assay [2], the affinity, expressed as Kd, was 1.47 pM; the T½ stood at 32.5 h; the koff is 5.46e-06 s⁻¹; the kon is 3.71e+06 M⁻¹ s⁻¹.

B9: H4H2132P (antibody, V domains shown)
VH: EVQLVESGGGVVRPGGSLRLSCAASGFTFDDYGMSWVRQFPGKGLEWVSSIDGNGGNTGYSDSVKGRFTISRDNAKNSLHLQMNSLRAEDTALYHCARDPDYDSVWGNYRPFDYWGQGTLVTVSS
VL: DIVMTQSPDSLAVSLGERATINCKSSQSVLSSSNDNNYLAWFQQKPGQPPNLLIYWASTRDSGVPDRFSASGSGTDFTLAISSLQAEDVAVYYCHQYYSSPPTFGQGTKVEIKR
notes: as for B1
For B9, in assay [1], the Kd worked out at 17.7 pM, the T½ came out at 4.65 h, the koff was 3.81e-05 s⁻¹ and the kon was 2.16e+06 M⁻¹ s⁻¹. In assay [2], the Kd stood at 0.958 pM, the T½ was 53 h, the koff stood at 3.35e-06 s⁻¹ and the kon came out at 3.49e+06 M⁻¹ s⁻¹.

B10: H4H2114P (antibody, V domains shown)
VH: QVQLVESGGGVVQPGRSLRLSCAASGFTFSSYGMHWVRQAPGKGLEWVAGMSYDGSSKYYEDSVKGRFTISRDNSKNTLNLQMNSLRVEDTAVYYCAKERDYVEYVDSYYGMDVWGQGTTVTVSA
VL: AIQMTQSPSSLSASVGDRVTITCRASQGIRNDLGWYQQKPGKAPKVLIYAASSLQSGVPSRFSGSGSGTVFTLTISSLQPEDFATYYCLQDYNYPLTFGGGTKVEIKR
notes: as for B1
B10: in assay [1], the Kd amounted to 106 pM, the T½ came to 1.8 h, the koff is 9.88e-05 s⁻¹ and the kon is 929000 M⁻¹ s⁻¹. In assay [2], this molecule had a Kd of 5.41 pM, a T½ of 22.2 h, a koff of 7.98e-06 s⁻¹ and a kon of 1.48e+06 M⁻¹ s⁻¹.

As usually defined, the Kd is the concentration at which binding is half-saturated. The low end stands for tighter binding, the high end for weaker binding. As usually defined, the koff is a measure of how fast the partners let go of each other. A higher koff goes with fast dissociation. What is called kon is a measure of how fast the partners come together. A lower kon goes with slower complex formation.
